# Experimental data published in publication PMC12022308 (Nature Communications, 2025).
# B1: L-protein (homodimeric BchL protein, electron donor component of DPOR) (natural protein, Rhodobacter sphaeroides, UniProt Q9RFD6 1-297, looked up)
# chain: MSPKDLTIPTGADGEGSVQVHLDEADKITGAKVFAVYGKGGIGKSTTSSNLSAAFSILGKRVLQIGCDPKHDSTFTLTGSLVPTVIDVLKDVDFHPEELRPEDFVFEGFNGVMCVEAGGPPAGTGCGGYVVGQTVKLLKQHHLLDDTDVVIFDVLGDVVCGGFAAPLQHADQAVVVTANDFDSIYAMNRIIAAVQAKSKNYKVRLAGCVANRSRATDEVDRFCKETNFRRLAHMPDLDAIRRSRLKKKTLFEMDEDQDVLAARAEYIRLAESLWRGLDPIDPHSLPDRDIFELLGFD
# Molecular target: the molecule itself
# Test: cryo-EM structure
protein,measurement,value
B1,stoichiometry N,2
